One block for each binder: values may come before it. Bridges are numbered along the chain shown (N, C = ends). [ ]: non-standard residue; d: D form. The star is where a group is joined. mli = maleimide cyclization element: 3,4-maleimide inserted symmetrically, forming a vinyl thioether with each Cys sulfur; Ttds = 1,13-diamino-4,7,10-trioxatridecan-succinamic acid, NCCCOCCOCCOCCCNC(=O)CCC(=O)*; mli(DOTA-Ttd) = 3,4-N-(DOTA-Ttd)-maleimide bridging two Cys S atoms as vinyl thioethers; DOTA = O=C(O)CN1CCN(CC(=O)O)CCN(CC(=O)*)CCN(CC(=O)O)CC1; Nle = CCCC[C@H](N)C(=O)O; Hexanoyl = CCCCCC(=O)*
Target: fibroblast activation protein (FAP) on FAP-expressing human WI-38 fibroblasts (human), Q12884
Test: competitive FACS on WI-38 cells vs 3 nM Cy5-labeled probe; A = pIC50 >7.0
Details: remark: other sources report otherwise

Binder: Hexanoyl-CPPTEFCD-NH2 (linker 1-7 via mli(DOTA-Ttd)) [compound Hex-[Cys(mli(DOTA-Ttd))-Pro-Pro-Thr-Glu-Phe-Cys]-Asp-NH2 (2020)]
pIC50 Category (FACS): > 7 pIC50

Binder: {DOTA-Ttds}-[Nle]CPPTEFCD-NH2 (linker 2-8 via mli) [compound DOTA-Ttds-Nle-[Cys(mli)-Pro-Pro-Thr-Glu-Phe-Cys]-Asp-NH2 (2007)]
pIC50 Category (FACS): > 7 pIC50

Second part, the binder after the results:

pIC50 Category (FACS): > 7 pIC50
B1: compound DOTA-Nle-[Cys-Pro-Pro-Thr-Glu-Phe-Cys]-Asp-NH2 (1004) (peptide)
peptide: CPPTEFCD
HELM: PEPTIDE1{[O=C(O)CN1CCN(CC(=O)O)CCN(CC(=O)[*:2])CCN(CC(=O)O)CC1].[Nle].C.P.P.T.E.F.C.D.[am]}$PEPTIDE1,PEPTIDE1,3:R3-9:R3$$$V2.0
SMILES: CCCC[C@H](NC(=O)CN1CCN(CC(=O)O)CCN(CC(=O)O)CCN(CC(=O)O)CC1)C(=O)N[C@H]1CSSC[C@@H](C(=O)N[C@@H](CC(=O)O)C(N)=O)NC(=O)[C@H](Cc2ccccc2)NC(=O)[C@H](CCC(=O)O)NC(=O)[C@H]([C@@H](C)O)NC(=O)[C@@H]2CCCN2C(=O)[C@@H]2CCCN2C1=O

pIC50 Category (FACS): > 7 pIC50
Binder: {DOTA-Ttds}-[Nle]CPPTEFCD-NH2 (disulfide 2-8) [compound DOTA-Ttds-Nle-[Cys-Pro-Pro-Thr-Glu-Phe-Cys]-Asp-NH2 (1003)]
